Columns and labels:
[1] = test system: MGLL; test: Kinetic analysis: hydrolysis of Coumarin Arachidonate (C-A) by MGLL constructs; format: biochemical, human; settings: estimated; limited by solubility of C-A; read-out: apparent KM for C-A
Description: (§1) A small fluorescent substrate, 4-methyl coumarin butyrate (4MC-B) was used to compare the activity of the engineered mutants to the activity of wt-MGLL (hMGLL 1-303) (SEQ ID NO: 3). The catalytic efficiency (kcat/KM) for the hydrolysis of the 4MC-B was similar for wt-MGLL (hMGLL 1-303) (SEQ ID NO: 3) and all MGLL mutants tested (Table 2). A larger more aliphatic fluorescent substrate, Coumarin Arachidonate (C-A), structurally more closely related to the MGLL natural substrate, 2-AG, was used to compare the activity of wt-MGLL (hMGLL 1-303) (SEQ ID NO: 3) to TEV cleaved mut-MGLL (hMGLL 1-303 L169S, L176S) (SEQ ID NO: 5).
(§2) The Michaelis-Menten parameters for the hydrolysis of 4-methylcoumarin butyrate (4MC-B) and coumarin arachidonate (C-A) substrate were determined using 4-5 nM of MGLL in 20 mM Pipes pH 7 and 150 mM NaCl at 37° C. The change in fluorescence due to substrate hydrolysis was monitored using excitation/emission wavelengths of 335/440 in a Safire II instrument from Tecan. The hyperbolic rates versus substrate concentration curves for the hydrolysis of 4MC-B were fit to the Michaelis-Menten equation using Excel.
The apparent kcat/KM ratio for the hydrolysis of C-A was determined at [S]<<KM. […] The kcat/KM values reported are the average from independent values determined from five substrate concentrations ranging from 700 to 40 nM.

[2] = Size exclusion chromatography of MGLL purified in the absence of detergent (aggregation/monomer); format: physicochemical; settings: size exclusion, purified in the absence of detergent
Description: A pilot purification of wt-MGLL (hMGLL 1-303) (SEQ ID NO: 3), performed in the complete absence of detergent, generated no protein (data not shown). A second purification of wt-MGLL (hMGLL 1-303) (SEQ ID NO: 3) was done with detergent in the lysis buffer only. Frozen cell pellets for wt-MGLL (hMGLL 1-303) (SEQ ID NO: 3) were thawed, resuspended, and lysed in Bugbuster® lysis buffer for 1 hour at 4° C. Bugbuster® lysis buffer is a proprietary lysis buffer from […] that contains detergent. The lysate was clarified by centrifugation at 40,000×g for 1 hr. No detergent was added at this point or during the rest of the purification. From this point forward, the purification protocol and buffers were the same as described below for mut-MGLL. An average of 2.2 mg of wt-MGLL (hMGLL 1-303) (SEQ ID NO: 3) per liter of cell culture was obtained.
Mutant MGLL (mut-MGLL) constructs were purified in the absence of detergent. Frozen cell pellets were thawed and resuspended in buffer A (50 mM Hepes buffer pH 7.5, 400 mM NaCl, 5% glycerol, 0.05% BME, 1× Complete EDTA-free protease inhibitor cocktail tablets (Roche)), dounce homogenized and mechanically lysed with a microfluidizer processor (Microfluidics). The extract was clarified by centrifugation at 40,000×g for 1 hr. The cleared lysate was loaded on a 1 ml His-Trap FF Crude column (GE-Healthcare) at 4° C. using the AktaXpress system. For larger preparations, a 5 ml His-Trap FF Crude column was used. The column was washed with 10-15 column volumes (CV) of buffer A containing 30 mM imidazole and mut-MGLL was eluted with 5 CV of 50 mM Hepes buffer pH 7.5, 400 mM NaCl, 5% glycerol, 0.05% BME, 400 mM imidazole. In most preparations, 30 mM imidazole was included in Buffer A from the beginning of the preparation to reduce non-specific binding on the His-Trap column. […] Fractions were analysed by SDS-PAGE. […] Purification yields were determined by Bradford assay using the protein assay kit from BioRad according to manufacturer's instruction with BSA as a standard (Bradford 1976).

[3] = test system: MGLL; test: Kinetic analysis: hydrolysis of 4-methyl coumarin butyrate (4MC-B) by MGLL constructs; format: biochemical, human; settings: substrate 4MC-B; 4-5 nM MGLL, 20 mM Pipes pH 7, 150 mM NaCl, 37° C.; average of 2 or 4 separate assays
Description: as §1, §2

[4] = Thermofluor thermal stability (melting transition) of MGLL; format: physicochemical
Description: The Thermofluor® assay is a powerful tool to screen for small molecule inhibitors interacting with a protein's active site or allosteric site. The assay detects small changes in the intrinsic melting temperature of proteins based on binding of ligands. Compounds that interact preferentially with the native form of the protein will increase the Tm, the temperature at which half of the protein is unfolded (Pantoliano et al. 2001). The technique monitors changes in the fluorescent intensity of dyes such as 1-anilinonaphthalene-8-sulfonic acid (1,8-ANS). The fluorescent dyes are quenched in aqueous environments but increase in fluorescence on binding to the hydrophobic core of denatured proteins.
Thermofluor® assays were conducted to characterize wt-MGLL (hMGLL 1-303) (SEQ ID NO: 3) and mut-MGLL (hMGLL 1-303 L169S, L176S) and evaluate if the MGLL mutants could be used for high-throughput screening using Thermofluor®. Three microliters of protein at a concentration of 0.05 mg/ml in 50 mM Pipes pH 7, 200 mM NaCl, 100 μM 1,8-ANS, and 0.001% Tween was added to pre-dispensed compound plates. Wells were overlaid with silicone oil (1 μL, Fluka, type DC 200) to prevent evaporation. Final compound concentrations varied from 150 to 0.15 μM. Assay plates were heated at a rate of 1° C./min for all experiments over a temperature range sufficient to measure protein unfolding. Fluorescence was measured by continuous illumination with UV light (Hamamatsu LC6) supplied via fiber optic and filtered through a custom band-pass filter (380-400 nm; >60D cutoff). Fluorescence emission was detected by measuring light intensity using a CCD camera (Sensys, Roper Scientific) filtered to detect emission at 500±25 nm, resulting in simultaneous and independent readings of all 384 wells. One or more images were collected at each temperature, and the sum of the pixel intensity in a given area of the assay plate was recorded vs temperature, and fit to standard equations to yield the Tm.

[5] = Circular dichroism structural analysis; format: physicochemical; settings: 5 μM protein, 10 mM cacodylic acid pH 7, 140 mM NaCl
Description: Circular dichroism experiments were performed on a Circular Dichroism Spectrometer Model 202 from Aviv Instruments Inc. The CD scans of wt-MGLL (hMGLL 1-303) (SEQ ID NO: 3) and TEV cleaved mut-MGLL (hMGLL 1-303 L169S, L176S) (SEQ ID NO: 5) (5 μM protein in 10 mM cacodylic acid pH 7 and 140 mM NaCl) were measured from 200 to 260 nm. Temperature melts were monitored at 210 nm.

CCCCC/C=C/C/C=C\C/C=C/C/C=C/CCCC(=O)Oc1ccc2ccc(=O)oc2c1 [C-A, Coumarin Arachidonate]
Km [1]: > 30 µM

B1: mut-MGLL. 1-303, L169S, L176S: engineered human MGLL 1-303 with cap-domain mutations L169S, L176S; SEQ ID NO: 4, SEQ ID NO: 5 after TEV cleavage (protein)
chain: MVDHHHHHHENLYFQGMPEESSPRRTPQSIPYQDLPHLVNADGQYLFCRYWKPTGTPKALIFVSHGAGEHSGRYEELARMLMGLDLLVFAHDHVGHGQSEGERMVVSDFHVFVRDVLQHVDSMQKDYPGLPVFLLGHSMGGAIAILTAAERPGHFAGMVLISPLVLANPESATTFKVLAAKVLNSVLPNLSSGPIDSSVLSRNKTEVDIYNSDPLICRAGLKVCFGIQLLNAVSRVERALPKLTVPFLLLQGSADRLCDSKGAYLLMELAKSQDKTLKIYEGAYHVLHKELPEVTNSVFHEINMWVSQRTATAGTASPP
modifications: His tag and TEV site; SEQ ID 5 after TEV cleavage; Human
monomer [2]: 90%
Kcat [3]: 0.8 s⁻¹
Km [3]: 136 µM
quality of the melting transition [4]: strong transition
Tm (midpoint of the melting transition) ([4]; 0.05 mg/ml protein, 1,8-ANS): 56.7 °C
CD scans 200 to 260 nm compared with wt-MGLL purified in the presence of detergent [5]: similar
